Source: paper doi:10.1101/2020.05.02.074187 (bioRxiv, 2020)
Like-named read-outs stand apart in the source and are kept apart here.

Legend:
Assay in all cases: single-molecule AFM dynamic force spectroscopy
[1] = target: T1, E-cadherin endogenously expressed on the apical surface of MDCK cells (canine (endogenous in MDCK), UniProt F1PAA9 157-885)
T1 sequence (looked up): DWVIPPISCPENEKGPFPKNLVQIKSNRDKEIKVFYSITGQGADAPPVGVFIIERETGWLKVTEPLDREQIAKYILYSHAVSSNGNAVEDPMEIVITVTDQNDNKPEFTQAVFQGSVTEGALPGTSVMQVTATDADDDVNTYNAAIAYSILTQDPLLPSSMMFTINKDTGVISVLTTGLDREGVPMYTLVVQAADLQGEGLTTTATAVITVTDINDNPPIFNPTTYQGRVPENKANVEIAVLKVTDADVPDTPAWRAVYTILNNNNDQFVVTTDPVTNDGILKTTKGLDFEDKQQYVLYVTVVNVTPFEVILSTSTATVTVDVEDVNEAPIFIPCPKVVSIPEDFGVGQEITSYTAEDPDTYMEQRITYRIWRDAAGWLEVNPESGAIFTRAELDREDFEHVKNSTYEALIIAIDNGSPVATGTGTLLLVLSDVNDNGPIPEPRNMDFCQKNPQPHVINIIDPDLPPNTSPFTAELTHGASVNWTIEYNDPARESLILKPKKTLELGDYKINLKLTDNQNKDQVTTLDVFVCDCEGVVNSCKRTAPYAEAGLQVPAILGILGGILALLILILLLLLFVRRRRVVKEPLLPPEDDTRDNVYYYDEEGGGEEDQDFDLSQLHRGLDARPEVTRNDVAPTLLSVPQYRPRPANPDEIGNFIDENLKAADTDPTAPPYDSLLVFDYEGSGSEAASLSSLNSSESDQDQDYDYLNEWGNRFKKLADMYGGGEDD

[2] = target: T1, E-cadherin endogenously expressed on …; remark: listed apart in the source
[3] = target: T1, E-cadherin endogenously expressed on …; remark: listed apart in the source

B1: recombinant E-cadherin extracellular region, biotinylated monomer with C-terminal Avi tag (domain or fragment, UniProt F1PAA9 157-712, looked up)
chain: DWVIPPISCPENEKGPFPKNLVQIKSNRDKEIKVFYSITGQGADAPPVGVFIIERETGWLKVTEPLDREQIAKYILYSHAVSSNGNAVEDPMEIVITVTDQNDNKPEFTQAVFQGSVTEGALPGTSVMQVTATDADDDVNTYNAAIAYSILTQDPLLPSSMMFTINKDTGVISVLTTGLDREGVPMYTLVVQAADLQGEGLTTTATAVITVTDINDNPPIFNPTTYQGRVPENKANVEIAVLKVTDADVPDTPAWRAVYTILNNNNDQFVVTTDPVTNDGILKTTKGLDFEDKQQYVLYVTVVNVTPFEVILSTSTATVTVDVEDVNEAPIFIPCPKVVSIPEDFGVGQEITSYTAEDPDTYMEQRITYRIWRDAAGWLEVNPESGAIFTRAELDREDFEHVKNSTYEALIIAIDNGSPVATGTGTLLLVLSDVNDNGPIPEPRNMDFCQKNPQPHVINIIDPDLPPNTSPFTAELTHGASVNWTIEYNDPARESLILKPKKTLELGDYKINLKLTDNQNKDQVTTLDVFVCDCEGVVNSCKRTAPYAEAGLQVPA
modifications: biotin (biotinylated with BirA enzyme)
[1]
  koff: 1.77 s⁻¹
[2]
  koff: 1.73 s⁻¹
[3]
  koff: 2.37 s⁻¹
